Target: human CC-chemokine receptor 2 (CCR2), endogenous on THP-1 cells, PBMC and whole blood cells (human) (UniProt P41597)
Assay: cell-based or functional assay

Sequence of UniProt P41597 (P41597 whole entry): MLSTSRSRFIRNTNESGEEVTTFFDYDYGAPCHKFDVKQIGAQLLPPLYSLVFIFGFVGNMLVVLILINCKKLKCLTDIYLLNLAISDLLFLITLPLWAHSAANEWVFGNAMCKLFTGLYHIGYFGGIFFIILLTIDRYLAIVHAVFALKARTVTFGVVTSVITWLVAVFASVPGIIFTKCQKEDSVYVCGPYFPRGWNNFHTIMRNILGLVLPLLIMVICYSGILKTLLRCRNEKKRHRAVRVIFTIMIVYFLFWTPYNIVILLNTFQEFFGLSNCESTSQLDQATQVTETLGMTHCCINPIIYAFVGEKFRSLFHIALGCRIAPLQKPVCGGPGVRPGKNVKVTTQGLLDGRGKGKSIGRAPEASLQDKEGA

Substance: murine monoclonal antibody LS132.1D9
- MCP-1-induced chemotaxis of fresh PBMC: 10 µg/mL
